Measured values as given in patent publication US10975142B2, “Endotrophin neutralization and use thereof” (THE BOARD OF REGENTS OF THE UNIVERSITY OF TEXAS SYSTEM, priority 2013, dated 2021).
Entries after “also recorded” stand apart in the source; their conditions may differ.

T1: ETP (Mus musculus, UniProt E9PWQ3)
T1 sequence (E9PWQ3 with tags, fused parts or gaps limits assumed): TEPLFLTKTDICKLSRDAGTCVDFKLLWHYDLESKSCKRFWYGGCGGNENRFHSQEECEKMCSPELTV


What was measured:
4T1 = 4T1 xenograft in nude mice, cisplatin with 10B6 or IgG; type: in vivo; settings: 28-days; cisplatin 1 mg/kg every 5 days, 10B6 100 μg/mouse once a week
Method: (§1) FIGS. 22A-22E. Neutralizing endotrophin activities with monoclonal antibodies sensitizes tumors to cisplatin treatment. FIG. 22A. Pieces of tumors from PyMT mice were implanted into wild-type hosts. Tumor-bearing mice were given cisplatin (1 mg/kg, ip., every 5 days) or PBS, combined with either TZD (20 mg/kg) or anti-endotrophin monoclonal antibodies (100 μg/mouse, once a week) for tumor progression. Tumor volumes were determined by caliper measurements. Data represent mean±SD (n=5/group). *p<0.05, **p<0.01, ***p<0.001 vs. Cisplatin by 2-way ANOVA. FIGS. 22B-22D. 4T1 (0.5×10^6/mouse) cells were xenografted in nude mice and monitored tumor growth (FIG. 22B) and metastasis (FIG. 22C). […] Tumor volumes were determined by caliper measurements. […] Metastatic burden was determined by measuring metastatic lesion area in lung tissues with H&E stains. Quantified data represent mean±SD (n=5/group). **p=0.0007 and *p=0.0209 vs. CIS/10B6 by unpaired student t-test. mRNA levels for EMT markers such as vimentin, snail, slug, twist1, twist2 and S100S4 were determined by RT-qPCR (FIG. 22D). […]
(§2) As a last step, therapeutic potential of a previously described endotrophin neutralizing antibody (clone 10B6) on cisplatin sensitivity was determined. […] Tumor regression was monitored for 2-months post implantation. […]

endotrophin+-tumors = test: allografts of tumor pieces (Ctrl-tumor, ETP+-tumor) in wild-type hosts, cisplatin; type: in vivo, mouse; settings: cisplatin 1 mg/kg, ip. twice a week
Method: FIGS. 20A-20C. Endotrophin overexpression confers cisplatin resistance in PyMT mice. FIG. 20A. 10-weeks-aged PyMT and PyMT/endotrophin (PyMT/ETP) mice were given high dosage of cisplatin (2.5 mg/kg, ip., 2 times/week). Tumor growth was determined by caliper measurements. Data represent mean±SD (n=7-10/group). ***p<0.001, PyMT/CIS vs. PyMT/ETP/CIS by 2-way ANOVA. FIGS. 20B-20C. A piece of tumors taken from PyMT (Ctrl-tumor) and PyMT/endotrophin (ETP^+-tumor) mice were implanted into isogenic wild-type hosts. Cisplatin (1 mg/kg, ip., 2 times/week) were injected at 3-weeks post implantation for tumor progression. Tumor volume was determined by caliper measurement. […] Data represent mean±SD (n=7-8/group). *p<0.05 vs. Ctrl-tumors by 2-way ANOVA. Representative images were taken at 70-days post implantation. Scale: 10 mm.

ETP = biological target: T1, ETP; test: in vivo Matrigel bioassay (stromal cell recruitment into plugs); settings: ETP 100 ng/plug, antibody 20 μg/plug, 2 days after implantation
Method: FIGS. 7A-7I: ETP acts as a chemokine augmenting tumor growth. […] Tumor volume was determined 1 month after implantation (representative images). Data represent mean±SEM (n=5 per group). ***P<0.001, unpaired t test. (FIG. 7B) In vivo Matrigel bioassay. Matrigel (50 μl) was mixed with ETP (100 ng/plug) or PBS and implanted into WT mice in the presence of IgG, 1D11, or 10B6 (20 μg/plug). 2 days after implantation, plugs were excised and stained for FIG. 7H & FIG. 7E. Scale bars: 100 μm. (FIGS. 7C-7H) Cancer cells were plated in the bottom chamber 1 day prior to seeding MS-1 cells (5×10^5 cells/well) and macrophages (1×10^5 cells/well) atop the membrane chamber in Transwell and incubated for 18-24 hours (FIG. 7C). (FIGS. 7D, 7E, 7F, 7G) Representative images of multiple independent experiments. Scale bars: 100 μm. (FIG. 7H) Quantitation (mean±SEM; n=3 per group). ***P<0.001, […], unpaired t test. (FIG. 7I) MS-1 migration assay. MS-1 cells (5×10^5 cells/well) were plated atop the chamber in Transwell and incubated for 24 hours. Chemotaxis was set up by following cell migration from DMEM/serum-free to DMEM/2% FBS/PBS or DMEM/2% FBS/ETP protein (1 μg/well). Images are representative of multiple independent experiments. Data represent mean±SEM (n=3 per group). ***P=0.008, unpaired t test. Scale bars: 100 μm.

tumors from PyMT mice = test: allografts of PyMT tumor pieces, cisplatin with TZD or 10B6; type: in vivo; settings: cisplatin 1 mg/kg every 5 days combined with TZD 20 mg/kg or 10B6 100 μg/mouse once a week; 2-months post implantation
Method: as §1, §2

Row | chemokine activity of ETP (stromal cell recruitment into Matrigel plugs) (ETP) | Molecule | primary tumor growth of 4T1 (4T1) | response of endotrophin+-tumors compared to control (Ctrl)-tumors (endotrophin+-tumors) | tumor growth / sensitization of the tumors to cisplatin treatment (tumors from PyMT mice)
1 |  | N.N.[Cl][Pt][Cl] [cisplatin, cis-diammine-dichloro-platinum] | barely inhibited | more resistant; also recorded: increased cisplatin resistance | 
2 | completely blocked | 10B6: rat anti-mouse endotrophin monoclonal antibody; light chain variable SEQ ID NO: 2, heavy chain variable SEQ ID NO: 4 (antibody, V domains shown) VH: QVQLQQSGPELAKPGSSVKISCKASGYTFTSYEMHWIKQRPGQGLEWIGYIYPESGSTGYNEKFKGKATLTVDKSSPTAYMQLSSLTPDNSAVYFCTRGLRVLGYVMDVWGHGTSVTVSS VL: DVQLTQSPSFLSASVGDRVTINCKASQNINKYLNWYQQKLGEAPKRLIYNTNNLQTGIPSRFSGSASGTDYTLTISSLHPEDFATYFCLQHSSLYTFGAGTKLELK | barely inhibited |  | efficiently sensitize
